Test results published in PMC5571166, “Mapping the key residues of SufB and SufD essential for biosynthesis of iron-sulfur clusters” (Scientific Reports, 2017).

T1: SufB^W287A (Escherichia coli, UniProt P77522 1-495, SufB^W287A)
T1 construct: SufB of the Escherichia coli sufABCDSE operon; source: pBBR-sufAB carrying the mutation, in bacterial extract
T1 sequence: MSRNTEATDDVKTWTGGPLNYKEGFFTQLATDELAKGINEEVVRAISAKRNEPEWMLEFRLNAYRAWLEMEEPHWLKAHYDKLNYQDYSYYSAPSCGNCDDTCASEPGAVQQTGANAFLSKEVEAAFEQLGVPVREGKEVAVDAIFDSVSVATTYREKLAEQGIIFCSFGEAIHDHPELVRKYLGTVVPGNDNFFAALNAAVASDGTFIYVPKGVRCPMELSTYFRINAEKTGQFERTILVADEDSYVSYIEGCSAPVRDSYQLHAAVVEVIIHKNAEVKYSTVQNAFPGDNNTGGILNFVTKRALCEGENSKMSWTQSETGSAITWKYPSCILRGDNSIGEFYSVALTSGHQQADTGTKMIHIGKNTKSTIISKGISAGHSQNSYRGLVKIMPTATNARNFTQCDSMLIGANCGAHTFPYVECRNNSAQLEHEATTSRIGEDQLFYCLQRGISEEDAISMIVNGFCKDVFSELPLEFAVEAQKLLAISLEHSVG

B1: SufD (natural protein, Escherichia coli)
chain: MAGLPNSSNALQQWHHLFEAEGTKRSPQAQQHLQQLLRTGLPTRKHENWKYTPLEGLINSQFVSIAGEISPQQRDALALTLDSVRLVFVDGRYVPALSDATEGSGYEVSINDDRQGLPDAIQAEVFLHLTESLAQSVTHIAVKRGQRPAKPLLLMHITQGVAGEEVNTAHYRHHLDLAEGAEATVIEHFVSLNDARHFTGARFTINVAANAHLQHIKLAFENPLSHHFAHNDLLLAEDATAFSHSFLLGGAVLRHNTSTQLNGENSTLRINSLAMPVKNEVCDTRTWLEHNKGFCNSRQLHKTIVSDKGRAVFNGLINVAQHAIKTDGQMTNNNLLMGKLAEVDTKPQLEIYADDVKCSHGATVGRIDDEQIFYLRSRGINQQDAQQMIIYAFAAELTEALRDEGLKQQVLARIGQRLPGGAR
notes: SufD of the Escherichia coli sufABCDSE operon; One SufD per SufBCD complex (1:2:1); also called SufD subunit of the SufBCD complex

How the values were obtained:
SufB^W287A = target: T1, SufB^W287A; experiment: SEC; SufBCD complexes co-expressed in E. coli and co-purified on Phenyl FF, Q XL and Sephacryl S-200; eluted from gel filtration at about 160 kDa; subunit composition checked by SDS-PAGE of the purified sample; settings: both partners purified
SufD = target: B1; experiment: as above; settings: both partners purified

binding result (SufB^W287A)	binding result (SufD)	Binder
binds		B1
binds	binds	SufC (natural protein, Escherichia coli, SufC of the Escherichia coli sufABCDSE operon; also called SufC subunit of the SufBCD complex) MLSIKDLHVSVEDKAILRGLSLDVHPGEVHAIMGPNGSGKSTLSATLAGREDYEVTGGTVEFKGKDLLALSPEDRAGEGIFMAFQYPVEIPGVSNQFFLQTALNAVRSYRGQETLDRFDFQDLMEEKIALLKMPEDLLTRSVNVGFSGGEKKRNDILQMAVLEPELCILDESDSGLDIDALKVVADGVNSLRDGKRSFIIVTHYQRILDYIKPDYVHVLYQGRIVKSGDFTLVKQLEEQGYGWLTEQQ
